Measurements from the supplement of paper PMC9170038.

Experiments:
MS2 coat protein [1] = assay: apparent KD of MS2 coat protein; designed switch direction (-1 OFF switch, 1 ON switch): 1; higher = weaker reporter binding
Summary of the method: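 Transcription of designed RNA switches on Illumina chips was done by stalled E. coli RNA polymerase. SNAP-549-labelled MS2 coat protein was then titrated in doubling steps from 0.7 or 1.5 nM to 3 µM, with steps of 0.8–1.5 h at the lowest and 10–20 min at the highest concentration. The per-design median over clusters of curve-fitted normalised fluorescence is reported as apparent KD.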

MS2 coat protein [2] = assay: apparent KD of MS2 coat protein; higher = weaker reporter binding; settings: Eterna round: R107
Summary of the method: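 SNAP-549-labelled MS2 coat protein was titrated onto designed RNA switches that had been transcribed on-chip from Illumina sequencing clusters. Amounts doubled from 0.7 or 1.5 nM to 3 µM in 100 mM Tris-HCl pH 7.5, 80 mM KCl, 4 mM MgCl2, with constant ligand or without. Apparent KD is the median per design of normalised cluster binding-curve fits.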

[3] = input ligand: theophylline 20 uM
[4] = input ligand: theophylline 2 mM
[5] = input ligand: tryptophan 2.4 mM

Sequence | apparent KD of MS2 coat protein (MS2 coat protein [1]; Eterna round: R95, input ligand: FMN 200 uM) [nM] | apparent KD of MS2 coat protein (MS2 coat protein [1]; Eterna round: R95, input ligand: microRNA oligo, concentration not stated) [nM] | apparent KD of MS2 coat protein (MS2 coat protein [1]; Eterna round: R95, input ligand: none) [nM] | apparent KD of MS2 coat protein (MS2 coat protein [1]; input ligand: FMN 200 uM) [nM] | apparent KD of MS2 coat protein (MS2 coat protein [1]; input ligand: microRNA oligo, concentration not stated) [nM] | apparent KD of MS2 coat protein (MS2 coat protein [1]; input ligand: none) [nM] | apparent KD of MS2 coat protein (MS2 coat protein [2]; input ligand: arginine 13.2 mM) [nM] | apparent KD of MS2 coat protein (MS2 coat protein [2]; input ligand: none) [nM] | apparent KD of MS2 coat protein (MS2 coat protein [2]; [3]) [nM] | apparent KD of MS2 coat protein (MS2 coat protein [2]; [4]) [nM] | apparent KD of MS2 coat protein (MS2 coat protein [2]; [5]) [nM]
AAAACACAUGAGGAUCACCCAUGUACCAGGUACAUAGGAUAUCCAGGCGCCAAAUAGCGCGGAGAAGGAUGGAAAA [Radireatdi] (puzzle: Same State 1) | 78.2 | 237 | 1760 |  |  |  |  |  |  |  | 
AAAAUAAGCCCUUGCACAUGAGGAUCACCCAUGUUCGGUUCACAGGAUAUCUAGUCAAACGGGCUGGAGAAGGGUGGCAAGGAC [Xequusceus] (Eterna round: R96, puzzle: Same State NG 3) |  |  |  | 67.7 | 278 | 227 |  |  |  |  | 
UGGCAAGAGGGAAGGAGCGUCAGCUGAGUCACAUGAGGAUCACCCAUGUCGCACAUAGUGUGACAGGUAGGUCGCCCUCUGCCGU [Vesosocera] |  |  |  |  |  |  | 70 | 122 | 152 | 207 | 122
UGGCAGCACCUCAUGUGCUGCCAAGGUGAUACCAGCAUCGAAAGAUGCCCUUGGCAGCACCAACAUGAGGAUCACCCAUGUAAUA [(MT)''-(M)'-(T')-(Theo)-(Ms2)_Design1/22_7] |  |  |  |  |  |  | 26.8 |  | 374 |  | 217
UGGGUUGGACCAGGAAAUGGUCUGACUCACCGAGGACCGGUACGGCCGCCACUCGUAGGUACAUGAGGAUCACCCAUGUCGGUGG [#1 Same State - Tryptophan A Attempt #11 (HarryS)] |  |  |  |  |  |  | 91.7 | 23.6 | 34.2 | 36.2 | 68.8
UGUAACAUGAGGAUCACCCAUGUAAGUGAUACCAGAUAAGUAGUAGUCCCUUGGCAGCAUAUUGGGCAAGUGUAUAGUCUAUACG [Same State - Theophylline A (Freestyle 6)] |  |  |  |  |  |  | 43 |  | 65.3 |  | 48.3
UGUACAGACAUCGAAUUCCUAUGUGCUGAAGGAGCGUCGUUGACGACAGGUAGGUCGCAGUUAACAUGAGGAUCACCCAUGUACA [Arg A Ex t5] |  |  |  |  |  |  | 45.8 | 85.8 | 82.3 | 119 | 77.5
UGUACCUAGUCGGCCGCCACUCAAUAAUGAGAGGAUCACCCUCAUAAACGAGUCAAAGACUCGAUGAGGACCGGGACUAGGUACU [Palindromic MS2 2 #AlternativeMS2 #Palindrome #StaticStem] |  |  |  |  |  |  | 59.4 | 53 | 73.2 | 72.7 | 21.1
UGUAUGUGAUCUGAUACCAGCGAUGAUAACCUGAGGAUCACCCUGGUAUGGCGAAAGCCUCGCCCUUGGCAGCAGAUCGCAUACU |  |  |  |  |  |  | 184 | 747 | 402 | 30.7 | 1210
UGUAUGUGAUCUGAUACCAGUCCAACUGGUAAAGCAUGAGGAACACCCAUGCAAAAUUGGGACCCUUGGCAGCAGAUCGCAUACU |  |  |  |  |  |  | 169 | 247 | 255 | 34.6 | 278
UGUAUGUGAUCUGAUACCAGUCCAACUGGUAAAUCAUGAGGAUCACCCAUGGAAAAUUGGGACCCUUGGCAGCAGAUCGCAUACU |  |  |  |  |  |  | 94.1 | 452 | 490 | 38.1 | 1070
UGUAUGUGAUGUGAUACCAGUCCAAUACUGGUAACAUGAGGAUCACCCAUGUAAUGAUGGGACCCUUGGCAGCACAUCGCAUACU [ThBS] |  |  |  |  |  |  | 175 |  | 347 |  | 242
UGUUUGGUGCGCGAGUGUUGGAUAAUUGAUACCAGUGUAGAUGUGCGCCCUUGGCAGCGAAUCCUAACAUGAGGAUCACCCAUGU [5.Y] |  |  |  |  |  |  | 38.2 |  | 59.5 |  | 41.8
UGUUUUUAUCGAAGGAGCGCCGCAUGAGGAUCACCCAUGCACAUGAGGAUCACCCAUGUCUGGCAGGUAGGUCGCGAUCAAUGGG [Same State Arginine B GF 11] |  |  |  |  |  |  | 33.7 | 41.9 | 48.7 | 47.9 | 44.3
UUAACAUGAGGAUCACCCAUGUUUGAUGAAGGAGCGACCAGAGGGUCAGGUAGGUCGCAUCACAUGAGGAUCACCCAUGUCGCCC [DOUBLE!!! :-D #13] |  |  |  |  |  |  | 22.3 | 21.8 | 26 | 25.8 | 22.4
UUAAGAGGCUAUCAAAUUUGAUUUUGUGAUACCAGAAUAAUUUUAUUCCCUUGGCAGCAUGACAUGAGGAUCACCCAUGUGUCUU [SSTheo A #2] |  |  |  |  |  |  | 33.8 |  | 40.2 |  | 34.6
UUAAUCUUAUAUGAAAACAUAUAAGCAGAAGGAGCGUGAUAAAACACAGGUAGGUCGCUGAAGGGAACAUGAGGAUCACCCAUGU [AstrosSSArgA#4] |  |  |  |  |  |  | 22.7 | 22.4 | 33.8 | 30.6 | 28.4
UUACCGUAAGGUAUACCGGUCCACAAUAAUCGAGGACCGGUACGGCCGCCACUCGAUGUGUGAUCACAUGAGGAUCACCCAUGUA [Tryptophan A 20] |  |  |  |  |  |  | 99.4 |  | 460 | 562 | 
UUAUAAGUACCGGUCCUCAGAUCCUCAUGACGAGGACCGGUACGGCCGCCACUCGAAACAUGAGGAUCACCCAUGUAAUAACAUU [Brourdmod19] |  |  |  |  |  |  | 18.9 |  | 28.8 | 25.6 | 

Sequence | apparent KD of MS2 coat protein (MS2 coat protein [1]; Eterna round: R95, input ligand: FMN 200 uM) [nM] | apparent KD of MS2 coat protein (MS2 coat protein [1]; Eterna round: R95, input ligand: microRNA oligo, concentration not stated) [nM] | apparent KD of MS2 coat protein (MS2 coat protein [1]; Eterna round: R95, input ligand: none) [nM] | apparent KD of MS2 coat protein (MS2 coat protein [1]; input ligand: FMN 200 uM) [nM] | apparent KD of MS2 coat protein (MS2 coat protein [1]; input ligand: microRNA oligo, concentration not stated) [nM] | apparent KD of MS2 coat protein (MS2 coat protein [1]; input ligand: none) [nM] | apparent KD of MS2 coat protein (MS2 coat protein [2]; input ligand: arginine 13.2 mM) [nM] | apparent KD of MS2 coat protein (MS2 coat protein [2]; input ligand: none) [nM] | apparent KD of MS2 coat protein (MS2 coat protein [2]; [3]) [nM] | apparent KD of MS2 coat protein (MS2 coat protein [2]; [4]) [nM] | apparent KD of MS2 coat protein (MS2 coat protein [2]; [5]) [nM]
UUAUAAGUACCGGUCCUCAGAUCCUCAUGACGAGGACCGGUACGGCCGCCACUCGAAACAUGAGGAUCACCCAUGUAAUAAUAUC [Brourdmod09] |  |  |  |  |  |  | 20.6 |  | 56.6 | 59.3 | 
UUAUAUACUACGGCCGCCACUGAACAUGAGGAUCACCCAUGUAAUGUUCAGAUUUUUUUUUUUUACAGGACCGGGUAGAAUUAAA [Tryptophan B 2] |  |  |  |  |  |  | 67.9 |  | 127 | 206 | 
UUAUUUAACGGAAGGAGCGCGGAAUAAUAAGUGGGUAAACAUGAGGAUCACCCAUGUAAACCGCAGGUAGGUCGCCGAUAUUUAU [AstrosEXyARgB#3] |  |  |  |  |  |  | 66.2 | 79.3 | 88.9 | 98.1 | 74.7
UUCAGCUAGUCGGCCGCCACUACCUGAGGAUCACCCUGGUAGGUCCACACUGCUUCGGCAGUGAGUAGGACCGGGACUAGCUGAG |  |  |  |  |  |  | 18.3 | 23.2 | 25.2 | 19 | 52.7
UUCAUGAGGAUUGAUACCAGCCACCAACAUGAGGAACUUACAUGAGGAUCACCCAUGUGAGGCCCUUGGCAGCAAGCAUACAUGA [Exclusion Theophylline B 3] |  |  |  |  |  |  | 10.1 | 10.6 | 16.7 | 48.5 | 11.5
UUGCCCAGUACGGCCGCCACUGUGUGCAGGGAGCCCAGGUCCACAUGAGGAUCACCCAUGUACAACAGGACCGGGUACUUGCAAU [Usdizaqu] |  |  |  |  |  |  | 7.54 |  | 12.7 | 11.8 | 
UUGGGUUUGCGAAGGAGCGGGAAAUAUAUAUAUAUAAUCCUAACAUGAGGAUCACCCAUGUCCCAGGUAGGUCGCGCGGGUUUGG [12.M] |  |  |  |  |  |  | 42 | 59.5 | 61.9 | 54.3 | 51.2
UUGGGUUUGUGAAGGAGCGGGAAAGUUAUAUAGUUAAUCCUAACAUGAGGAUCACCCAUGUCCCAGGUAGGUCGCGCGGGUUUGG [12.P] |  |  |  |  |  |  | 32.7 | 47.5 | 60.6 | 55 | 47.3
UUGGGUUUGUGAAGGAGCGGGAAAGUUUUAUAGUGAAUCCUAACAUGAGGAUCACCCAUGUCCCAGGUAGGUCGCGCGGGUUUGG [12.Q] |  |  |  |  |  |  | 240 | 134 | 115 | 144 | 80.8
UUGGUACGACAGCUCAUAUAAGCAUGUGAUACCAGACUGGAAACAGUCCCUUGGCAGCACUUUACAUGAGGAUCACCCAUGUCGG [EThA NP+V+V2 #3 +-Same Structure] |  |  |  |  |  |  | 76.6 |  | 201 |  | 212
UUGUUGUUUGGAAGGAGCGUGGAUGAGUGUGGACAUGAGGAUCACCCAUGUUGGAUGAUACCGCAGGUAGGUCGCCGGGUGGUGG [11.aD] |  |  |  |  |  |  | 89.7 | 164 | 162 | 300 | 75.9
UUUAGUCAAUCGGCCGCCACUGACAUGAGGAUCACCCAUGUAGGUAAGGAUCAACCUCGAAAGUACAGGACCGGGAUUCGCCUCU [theeternabot_exclusion_MS2_Trp_B_45] |  |  |  |  |  |  | 51.7 |  | 67.6 | 65 | 
UUUAUAUAGACGGCCGCCACUGGAAUUAAUACAUGAGGAUCACCCAUGUAUAGAGAAUAAUAAUACAGGACCGGGUCUUCAUGAU [SS Tryp B Tesla 1.1] |  |  |  |  |  |  | 28.3 |  | 34.2 | 33.7 | 
UUUGACGGCGAUCUGGGUUUACCAGAUCGGCGAGGACCGGUACGGCCGCCACUCGUGUUUCUUUGACAUGAGGAUCACCCAUGUA [whbob_SS_trypto A_f2] |  |  |  |  |  |  | 38.4 |  | 57.3 | 60.5 | 
UUUGAUAGGACAGAUACCAGCGUGUUAUAAAACAUGAGGAUCACCCAUGUAGUGAUCAAGCGCCCUUGGCAGCUGGUUUGUUAGG [7.J] |  |  |  |  |  |  | 73.5 |  | 220 |  | 207
UUUGAUAGGACAGAUACCAGCGUGUUGUAGAACAUGAGGAUCACCCAUGUAGUGAUCAAGCGCCCUUGGCAGCUGGUUUGUUAGG [7.L] |  |  |  |  |  |  | 184 |  | 350 |  | 363
UUUUAGCAUCGAAGGAGCGCUGGUGAAACUGACUAUGGAACAUGAGGAUCACCCAUGUGCUAGCAGGUAGGUCGCGAUGCUAUUU [SSAB NP+V+V2 #10] |  |  |  |  |  |  | 16.9 | 17.6 | 20.7 | 18.1 | 14.9
UUUUUUAUCAUGGCGUAUCGGAAAACCGAUACCAGUACAGAAAUGUACCCUUGGCAGCGGCGUUUUACAUGAGGAUCACCCAUGU [Ex Theophylline A 4] |  |  |  |  |  |  | 15.1 |  | 23.7 |  | 14.9
